*1 amine or outer side, *2 acyl side, *3 side chain or, on linkers, in order; H or OH if unused. Where no end group is shown, it is not given here. Side-chain parts run from the residue outwards. [ ]: non-standard residue; d: D form. The star is where a group is joined. C18 diacid = O=C(O)CCCCCCCCCCCCCCCCC(=O)*; C16 diacid = O=C(O)CCCCCCCCCCCCCCC(=O)*; γGlu = O=C(O)[C@H](CCC(=O)[*:2])N[*:1]; NMeI = CC[C@H](C)[C@H](NC)C(=O)O; Pentanoyl = CCCCC(=O)*; AEEA = NCCOCCOCC(=O)O; Aib = CC(C)(N)C(=O)O; Butyryl = CCCC(=O)*
B1: SEQ ID NO 200 (peptide)
peptide: [NMeI]VLSLD[dV]PIKLK([AEEA-AEEA-γGlu-C18 diacid])KILLEQEKQK[Aib]QREQAETN[Aib]QILAQV-NH2
modifications: N-terminus assumed
SMILES: CC[C@H](C)[C@H](NC)C(=O)N[C@H](C(=O)N[C@@H](CC(C)C)C(=O)N[C@@H](CO)C(=O)N[C@@H](CC(C)C)C(=O)N[C@@H](CC(=O)O)C(=O)N[C@@H](C(=O)N1CCC[C@H]1C(=O)N[C@H](C(=O)N[C@@H](CCCCN)C(=O)N[C@@H](CC(C)C)C(=O)N[C@@H](CCCCNC(=O)COCCOCCNC(=O)COCCOCCNC(=O)CC[C@H](NC(=O)CCCCCCCCCCCCCCCCC(=O)O)C(=O)O)C(=O)N[C@@H](CCCCN)C(=O)N[C@H](C(=O)N[C@@H](CC(C)C)C(=O)N[C@@H](CC(C)C)C(=O)N[C@@H](CCC(=O)O)C(=O)N[C@@H](CCC(N)=O)C(=O)N[C@@H](CCC(=O)O)C(=O)N[C@@H](CCCCN)C(=O)N[C@@H](CCC(N)=O)C(=O)N[C@@H](CCCCN)C(=O)NC(C)(C)C(=O)N[C@@H](CCC(N)=O)C(=O)N[C@@H](CCCNC(=N)N)C(=O)N[C@@H](CCC(=O)O)C(=O)N[C@@H](CCC(N)=O)C(=O)N[C@@H](C)C(=O)N[C@@H](CCC(=O)O)C(=O)N[C@H](C(=O)N[C@@H](CC(N)=O)C(=O)NC(C)(C)C(=O)N[C@@H](CCC(N)=O)C(=O)N[C@H](C(=O)N[C@@H](CC(C)C)C(=O)N[C@@H](C)C(=O)N[C@@H](CCC(N)=O)C(=O)N[C@H](C(N)=O)C(C)C)[C@@H](C)CC)[C@@H](C)O)[C@@H](C)CC)[C@@H](C)CC)C(C)C)C(C)C
B2: SEQ ID NO 204 (peptide)
peptide: Ac-IVLSLD[dV]PIKLK([AEEA-AEEA-γGlu-γGlu-C18 diacid])KILLEQEKQKKQREQAETN[Aib]QILAQV-NH2
SMILES: CC[C@H](C)[C@H](NC(C)=O)C(=O)N[C@H](C(=O)N[C@@H](CC(C)C)C(=O)N[C@@H](CO)C(=O)N[C@@H](CC(C)C)C(=O)N[C@@H](CC(=O)O)C(=O)N[C@@H](C(=O)N1CCC[C@H]1C(=O)N[C@H](C(=O)N[C@@H](CCCCN)C(=O)N[C@@H](CC(C)C)C(=O)N[C@@H](CCCCNC(=O)COCCOCCNC(=O)COCCOCCNC(=O)CC[C@H](NC(=O)CC[C@H](NC(=O)CCCCCCCCCCCCCCCCC(=O)O)C(=O)O)C(=O)O)C(=O)N[C@@H](CCCCN)C(=O)N[C@H](C(=O)N[C@@H](CC(C)C)C(=O)N[C@@H](CC(C)C)C(=O)N[C@@H](CCC(=O)O)C(=O)N[C@@H](CCC(N)=O)C(=O)N[C@@H](CCC(=O)O)C(=O)N[C@@H](CCCCN)C(=O)N[C@@H](CCC(N)=O)C(=O)N[C@@H](CCCCN)C(=O)N[C@@H](CCCCN)C(=O)N[C@@H](CCC(N)=O)C(=O)N[C@@H](CCCNC(=N)N)C(=O)N[C@@H](CCC(=O)O)C(=O)N[C@@H](CCC(N)=O)C(=O)N[C@@H](C)C(=O)N[C@@H](CCC(=O)O)C(=O)N[C@H](C(=O)N[C@@H](CC(N)=O)C(=O)NC(C)(C)C(=O)N[C@@H](CCC(N)=O)C(=O)N[C@H](C(=O)N[C@@H](CC(C)C)C(=O)N[C@@H](C)C(=O)N[C@@H](CCC(N)=O)C(=O)N[C@H](C(N)=O)C(C)C)[C@@H](C)CC)[C@@H](C)O)[C@@H](C)CC)[C@@H](C)CC)C(C)C)C(C)C
B3: SEQ ID NO 7 (peptide)
peptide: Butyryl-VLSLD[dV]PIKLK([γGlu-C16 diacid])QILLKQERQKKQREQAEKNKQILEQV-NH2
SMILES: CCCC(=O)N[C@H](C(=O)N[C@@H](CC(C)C)C(=O)N[C@@H](CO)C(=O)N[C@@H](CC(C)C)C(=O)N[C@@H](CC(=O)O)C(=O)N[C@@H](C(=O)N1CCC[C@H]1C(=O)N[C@H](C(=O)N[C@@H](CCCCN)C(=O)N[C@@H](CC(C)C)C(=O)N[C@@H](CCCCNC(=O)CC[C@H](NC(=O)CCCCCCCCCCCCCCC(=O)O)C(=O)O)C(=O)N[C@@H](CCC(N)=O)C(=O)N[C@H](C(=O)N[C@@H](CC(C)C)C(=O)N[C@@H](CC(C)C)C(=O)N[C@@H](CCCCN)C(=O)N[C@@H](CCC(N)=O)C(=O)N[C@@H](CCC(=O)O)C(=O)N[C@@H](CCCNC(=N)N)C(=O)N[C@@H](CCC(N)=O)C(=O)N[C@@H](CCCCN)C(=O)N[C@@H](CCCCN)C(=O)N[C@@H](CCC(N)=O)C(=O)N[C@@H](CCCNC(=N)N)C(=O)N[C@@H](CCC(=O)O)C(=O)N[C@@H](CCC(N)=O)C(=O)N[C@@H](C)C(=O)N[C@@H](CCC(=O)O)C(=O)N[C@@H](CCCCN)C(=O)N[C@@H](CC(N)=O)C(=O)N[C@@H](CCCCN)C(=O)N[C@@H](CCC(N)=O)C(=O)N[C@H](C(=O)N[C@@H](CC(C)C)C(=O)N[C@@H](CCC(=O)O)C(=O)N[C@@H](CCC(N)=O)C(=O)N[C@H](C(N)=O)C(C)C)[C@@H](C)CC)[C@@H](C)CC)[C@@H](C)CC)C(C)C)C(C)C
B4: SEQ ID NO 203 (peptide)
peptide: Ac-IVLSLD[dV]PIKLK([AEEA-γGlu-C18 diacid])KILLEQEKQKKQREQAETN[Aib]QILAQV-NH2
SMILES: CC[C@H](C)[C@H](NC(C)=O)C(=O)N[C@H](C(=O)N[C@@H](CC(C)C)C(=O)N[C@@H](CO)C(=O)N[C@@H](CC(C)C)C(=O)N[C@@H](CC(=O)O)C(=O)N[C@@H](C(=O)N1CCC[C@H]1C(=O)N[C@H](C(=O)N[C@@H](CCCCN)C(=O)N[C@@H](CC(C)C)C(=O)N[C@@H](CCCCNC(=O)COCCOCCNC(=O)CC[C@H](NC(=O)CCCCCCCCCCCCCCCCC(=O)O)C(=O)O)C(=O)N[C@@H](CCCCN)C(=O)N[C@H](C(=O)N[C@@H](CC(C)C)C(=O)N[C@@H](CC(C)C)C(=O)N[C@@H](CCC(=O)O)C(=O)N[C@@H](CCC(N)=O)C(=O)N[C@@H](CCC(=O)O)C(=O)N[C@@H](CCCCN)C(=O)N[C@@H](CCC(N)=O)C(=O)N[C@@H](CCCCN)C(=O)N[C@@H](CCCCN)C(=O)N[C@@H](CCC(N)=O)C(=O)N[C@@H](CCCNC(=N)N)C(=O)N[C@@H](CCC(=O)O)C(=O)N[C@@H](CCC(N)=O)C(=O)N[C@@H](C)C(=O)N[C@@H](CCC(=O)O)C(=O)N[C@H](C(=O)N[C@@H](CC(N)=O)C(=O)NC(C)(C)C(=O)N[C@@H](CCC(N)=O)C(=O)N[C@H](C(=O)N[C@@H](CC(C)C)C(=O)N[C@@H](C)C(=O)N[C@@H](CCC(N)=O)C(=O)N[C@H](C(N)=O)C(C)C)[C@@H](C)CC)[C@@H](C)O)[C@@H](C)CC)[C@@H](C)CC)C(C)C)C(C)C
B5: SEQ ID NO 202 (peptide)
peptide: Pentanoyl-VLSLD[dV]PIKLK([AEEA-AEEA-γGlu-C18 diacid])KILLEQEKQK[Aib]QREQAETN[Aib]QILAQV-NH2
SMILES: CCCCC(=O)N[C@H](C(=O)N[C@@H](CC(C)C)C(=O)N[C@@H](CO)C(=O)N[C@@H](CC(C)C)C(=O)N[C@@H](CC(=O)O)C(=O)N[C@@H](C(=O)N1CCC[C@H]1C(=O)N[C@H](C(=O)N[C@@H](CCCCN)C(=O)N[C@@H](CC(C)C)C(=O)N[C@@H](CCCCNC(=O)COCCOCCNC(=O)COCCOCCNC(=O)CC[C@H](NC(=O)CCCCCCCCCCCCCCCCC(=O)O)C(=O)O)C(=O)N[C@@H](CCCCN)C(=O)N[C@H](C(=O)N[C@@H](CC(C)C)C(=O)N[C@@H](CC(C)C)C(=O)N[C@@H](CCC(=O)O)C(=O)N[C@@H](CCC(N)=O)C(=O)N[C@@H](CCC(=O)O)C(=O)N[C@@H](CCCCN)C(=O)N[C@@H](CCC(N)=O)C(=O)N[C@@H](CCCCN)C(=O)NC(C)(C)C(=O)N[C@@H](CCC(N)=O)C(=O)N[C@@H](CCCNC(=N)N)C(=O)N[C@@H](CCC(=O)O)C(=O)N[C@@H](CCC(N)=O)C(=O)N[C@@H](C)C(=O)N[C@@H](CCC(=O)O)C(=O)N[C@H](C(=O)N[C@@H](CC(N)=O)C(=O)NC(C)(C)C(=O)N[C@@H](CCC(N)=O)C(=O)N[C@H](C(=O)N[C@@H](CC(C)C)C(=O)N[C@@H](C)C(=O)N[C@@H](CCC(N)=O)C(=O)N[C@H](C(N)=O)C(C)C)[C@@H](C)CC)[C@@H](C)O)[C@@H](C)CC)[C@@H](C)CC)C(C)C)C(C)C
B6: SEQ ID NO 201 (peptide)
peptide: Pentanoyl-VLSLD[dV]PIKLK([AEEA-AEEA-γGlu-C18 diacid])KILLEQEKQKKQREQAETN[Aib]QILAQV-NH2
SMILES: CCCCC(=O)N[C@H](C(=O)N[C@@H](CC(C)C)C(=O)N[C@@H](CO)C(=O)N[C@@H](CC(C)C)C(=O)N[C@@H](CC(=O)O)C(=O)N[C@@H](C(=O)N1CCC[C@H]1C(=O)N[C@H](C(=O)N[C@@H](CCCCN)C(=O)N[C@@H](CC(C)C)C(=O)N[C@@H](CCCCNC(=O)COCCOCCNC(=O)COCCOCCNC(=O)CC[C@H](NC(=O)CCCCCCCCCCCCCCCCC(=O)O)C(=O)O)C(=O)N[C@@H](CCCCN)C(=O)N[C@H](C(=O)N[C@@H](CC(C)C)C(=O)N[C@@H](CC(C)C)C(=O)N[C@@H](CCC(=O)O)C(=O)N[C@@H](CCC(N)=O)C(=O)N[C@@H](CCC(=O)O)C(=O)N[C@@H](CCCCN)C(=O)N[C@@H](CCC(N)=O)C(=O)N[C@@H](CCCCN)C(=O)N[C@@H](CCCCN)C(=O)N[C@@H](CCC(N)=O)C(=O)N[C@@H](CCCNC(=N)N)C(=O)N[C@@H](CCC(=O)O)C(=O)N[C@@H](CCC(N)=O)C(=O)N[C@@H](C)C(=O)N[C@@H](CCC(=O)O)C(=O)N[C@H](C(=O)N[C@@H](CC(N)=O)C(=O)NC(C)(C)C(=O)N[C@@H](CCC(N)=O)C(=O)N[C@H](C(=O)N[C@@H](CC(C)C)C(=O)N[C@@H](C)C(=O)N[C@@H](CCC(N)=O)C(=O)N[C@H](C(N)=O)C(C)C)[C@@H](C)CC)[C@@H](C)O)[C@@H](C)CC)[C@@H](C)CC)C(C)C)C(C)C

What was measured:
CRF1R receptor = target: T1, CRF1R receptor (UniProt P34998 24-415, limits assumed); assay: cell-based or functional assay
T1 sequence (looked up): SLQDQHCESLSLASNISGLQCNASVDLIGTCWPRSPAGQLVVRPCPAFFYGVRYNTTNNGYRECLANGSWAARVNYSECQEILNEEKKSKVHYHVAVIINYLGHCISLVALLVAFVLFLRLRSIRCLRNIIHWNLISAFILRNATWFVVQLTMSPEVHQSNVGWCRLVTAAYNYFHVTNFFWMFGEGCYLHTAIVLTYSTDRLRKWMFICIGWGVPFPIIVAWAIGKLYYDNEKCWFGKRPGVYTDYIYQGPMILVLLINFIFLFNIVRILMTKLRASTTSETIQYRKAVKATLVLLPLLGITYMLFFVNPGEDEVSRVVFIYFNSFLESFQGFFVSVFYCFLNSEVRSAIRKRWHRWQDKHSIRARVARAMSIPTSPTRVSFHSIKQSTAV

[1] = target: human corticotropin-releasing factor 2a (CRF2a receptor) (human), Q13324; assay: cell-based or functional assay
human corticotropin-releasing factor 2a (CRF2a receptor) (human), Q13324, sequence (Q13324 20-411): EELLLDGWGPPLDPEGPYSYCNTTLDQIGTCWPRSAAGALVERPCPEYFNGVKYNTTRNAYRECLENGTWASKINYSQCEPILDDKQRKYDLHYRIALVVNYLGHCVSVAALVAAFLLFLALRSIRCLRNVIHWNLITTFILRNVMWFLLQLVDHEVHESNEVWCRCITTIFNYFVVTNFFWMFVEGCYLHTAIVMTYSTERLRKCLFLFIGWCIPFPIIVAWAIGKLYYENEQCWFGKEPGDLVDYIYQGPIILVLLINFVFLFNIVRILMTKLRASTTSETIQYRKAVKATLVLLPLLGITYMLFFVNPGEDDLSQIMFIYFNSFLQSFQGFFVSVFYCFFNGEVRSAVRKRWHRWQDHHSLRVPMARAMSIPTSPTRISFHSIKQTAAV

| Binder | Emax (% I) (CRF1R receptor) [%] | EC50 [nM] (cAMP) [1] | EC50 (CRF1R receptor) [nM] |
| --- | --- | --- | --- |
| B1 | 2 | 0.71 |  |
| B2 | -2 | 1.84 |  |
| B3 | 59 | 0.06 | 101 |
| B4 | 3 | 0.43 |  |
| B5 | 8 | 1.73 |  |
| B6 | 5 | 1.37 |  |

— patent US20260001928A1 (CORTERIA PHARMACEUTICALS, priority 2022, published 2026)
